Results taken from patent US20220160760A1.

Target: carcinoembryonic antigen (CEA) (UniProt P06731)
Experiment: cell-based or functional assay

Chain of UniProt P06731 (P06731 35-702 limits assumed): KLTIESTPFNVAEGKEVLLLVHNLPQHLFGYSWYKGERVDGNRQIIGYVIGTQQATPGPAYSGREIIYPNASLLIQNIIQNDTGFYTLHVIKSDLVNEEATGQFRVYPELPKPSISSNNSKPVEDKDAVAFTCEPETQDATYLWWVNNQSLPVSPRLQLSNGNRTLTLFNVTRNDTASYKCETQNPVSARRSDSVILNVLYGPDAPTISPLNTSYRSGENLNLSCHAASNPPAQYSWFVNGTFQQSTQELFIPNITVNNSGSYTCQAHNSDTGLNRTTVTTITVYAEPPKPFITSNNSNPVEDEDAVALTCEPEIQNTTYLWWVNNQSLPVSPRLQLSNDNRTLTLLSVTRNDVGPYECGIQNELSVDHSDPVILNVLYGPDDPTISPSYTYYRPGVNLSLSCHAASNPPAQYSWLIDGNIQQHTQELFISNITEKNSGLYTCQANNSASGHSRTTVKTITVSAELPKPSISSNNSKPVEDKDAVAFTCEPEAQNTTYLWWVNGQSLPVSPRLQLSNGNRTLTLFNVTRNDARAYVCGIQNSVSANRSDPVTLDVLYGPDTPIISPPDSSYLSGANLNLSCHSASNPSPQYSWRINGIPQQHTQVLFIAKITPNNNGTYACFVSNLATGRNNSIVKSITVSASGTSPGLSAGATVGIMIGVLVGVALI

IL-2 secretion by ELISA, T-cells mixed with LoVo-OKT3 cells, average of three donors (non-transduced cells 0.80 ng/ml): 5 ng/mL
Substance: MFE23 CoStAR (MFE23.scFv fused to full length human CD28) (receptor)
